We go through 1 molecule from patent US20150299252A1.

Where no end group is shown, it is not given here.

The target of this assay is T1, Fc-chimeric NKG2D, P26718.
T1 chain: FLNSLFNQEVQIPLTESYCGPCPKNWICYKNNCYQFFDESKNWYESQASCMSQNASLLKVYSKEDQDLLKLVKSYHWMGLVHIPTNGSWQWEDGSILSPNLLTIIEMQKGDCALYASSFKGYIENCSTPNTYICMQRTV

B1: biotinylated SVH1C (quadravalent, C-terminal ε-biotinyl-lysine amide) (peptide)
peptide: NPSHPLSGGGGS
chain: KKKK
modifications: not fully specified (some residues, C-terminus); also: quadravalent: four peptide copies on lysine scaffold
B1: the Kd (in general, the equilibrium constant for the complex coming apart) was determined as 1 µM.
